We go through two proteins from publication PMC10776498.

Data set [1] is described as follows: western blot of GSDMD-N, HEK293T input. The following applies: control: GSDMD-WT. Background: A western blot detects proteins with antibodies after separation by electrophoresis.
Data set [2] in a line: western blot of GSDMD-N, HUVECs. The conditions noted are these: glycan gained; control: HUVECs, LPS without TMG.

B1: GSDMD (gasdermin-D): S338A (protein)
parent chain: MGSAFERVVRRVVQELDHGGEFIPVTSLQSSTGFQPYCLVVRKPSSSWFWKPRYKCVNLSIKDILEPDAAEPDVQRGRSFHFYDAMDGQIQGSVELAAPGQAKIAGGAAVSDSSSTSMNVYSLSVDPNTWQTLLHERHLRQPEHKVLQQLRSRGDNVYVVTEVLQTQKEVEVTRTHKREGSGRFSLPGATCLQGEGQGHLSQKKTVTIPSGSTLAFRVAQLVIDSDLDVLLFPDKKQRTFQPPATGHKRSTSEGAWPQLPSGLSMMRCLHNFLTDGVPAEGAFTEDFQGLRAEVETISKELELLDRELCQLLLEGLEGVLRDQLALRALEEALEQGQSLGPVEPLDGPAGAVLECLVLSSGMLVPELAIPVVYLLGALTMLSETQHKLLAEALESQTLLGPLELVGSLLEQSAPWQERSTMSLPPGLLGNSWGEGAPAWVLLDECGLELGEDTPHVCWEPQAQGRMCALYASLALLSGLSQEPH
B1: the “other: proteolytic processing” value in data set [1] (glycan lost, LPS + TMG) was “increases”.

B2: GSDMD (gasdermin-D): TMG (protein)
parent chain: B1 parent chain
Turning to B2, the “other: proteolytic processing” value in data set [1] (glycan gained, LPS without TMG) is “decreases”; in data set [2], “decreases”.
